Laboratory results as given in publication PMC3808355.

System: ProQ (Escherichia coli (BW25113-derived; ASKA pCA24N clone or pMCSG7 clone))
Experiment: tryptophan fluorescence titration
Conditions: 20 nM ProQ, excitation 295 nm, emission 355 nm, buffer, salt, pH and temperature not in the material

| Substance | Kd |
| --- | --- |
| proP P1 mRNA | 0.017 µM |
| proP P2 mRNA | 0.0116 µM |
| rpoS mRNA | 0.0195 µM |
